Measurements from publication doi:10.1101/2020.01.12.903617, “The peptide sensor motif stabilizes the outward-facing conformation of TmrAB” (bioRxiv, 2020).
Numbering of substitutions follows the chain as printed. No end group written: not given here. fluorescein = fluorescein label attached to the Cys side chain

Key:
[1] = biological target: T1, TmrAB D125A^TmrB (Thermus thermophilus, UniProt Q72J05 1-600; Q72J04 1-578, D125A); test: fluorescence polarisation; 1.7 uM TmrAB with 50 nM RRY(C^Fluorescein)KSTEL in SEC buffer (20 mM HEPES, 150 mM NaCl, pH 7, 0.05% ß-DDM), 15 minutes on ice, in the absence or presence of 5 mM ATP and 10 mM MgCl2; read at 25°C (the results say 4°C); signal normalized to WT without ATP; conditions: both partners purified
T1 construct: TmrA, Thermus thermophilus, the chain of TmrAB with the canonical Walker B motif; TmrB, Thermus thermophilus, the chain of TmrAB with the non-canonical Walker B motif; also called D125A^TmrB variant
T1 sequence 1: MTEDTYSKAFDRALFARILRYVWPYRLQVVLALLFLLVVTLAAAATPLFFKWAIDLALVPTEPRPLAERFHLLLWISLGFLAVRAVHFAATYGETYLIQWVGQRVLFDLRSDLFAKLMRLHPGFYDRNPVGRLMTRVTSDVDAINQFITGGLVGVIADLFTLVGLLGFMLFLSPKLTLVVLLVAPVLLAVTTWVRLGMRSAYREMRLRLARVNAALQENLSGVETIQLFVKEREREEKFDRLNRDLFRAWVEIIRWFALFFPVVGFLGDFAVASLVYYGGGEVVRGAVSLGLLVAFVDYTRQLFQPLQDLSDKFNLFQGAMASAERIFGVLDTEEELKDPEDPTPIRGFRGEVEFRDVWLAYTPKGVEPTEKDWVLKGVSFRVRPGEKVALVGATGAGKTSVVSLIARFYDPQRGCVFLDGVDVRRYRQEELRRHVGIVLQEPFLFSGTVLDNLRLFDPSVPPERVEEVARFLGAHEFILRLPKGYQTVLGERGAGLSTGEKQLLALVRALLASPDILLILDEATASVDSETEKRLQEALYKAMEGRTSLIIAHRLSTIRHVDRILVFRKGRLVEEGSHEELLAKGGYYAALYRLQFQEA
T1 sequence 2: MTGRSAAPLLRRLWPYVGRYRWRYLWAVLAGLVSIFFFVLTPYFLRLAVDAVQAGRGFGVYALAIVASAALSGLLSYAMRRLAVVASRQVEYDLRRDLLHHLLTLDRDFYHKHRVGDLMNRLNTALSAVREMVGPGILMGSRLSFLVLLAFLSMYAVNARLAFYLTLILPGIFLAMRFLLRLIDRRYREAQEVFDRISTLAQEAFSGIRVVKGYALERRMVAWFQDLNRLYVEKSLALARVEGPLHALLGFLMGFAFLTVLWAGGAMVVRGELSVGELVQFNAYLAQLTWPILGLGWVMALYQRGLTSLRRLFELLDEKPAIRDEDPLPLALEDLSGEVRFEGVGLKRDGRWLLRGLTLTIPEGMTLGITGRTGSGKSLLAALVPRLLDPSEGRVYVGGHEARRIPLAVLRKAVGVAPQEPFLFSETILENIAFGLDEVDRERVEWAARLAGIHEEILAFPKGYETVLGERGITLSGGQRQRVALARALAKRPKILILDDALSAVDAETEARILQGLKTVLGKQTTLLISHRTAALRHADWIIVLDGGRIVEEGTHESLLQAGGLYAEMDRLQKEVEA

[2] = biological target: T2, TmrAB R136A^TmrA (Thermus thermophilus, UniProt Q72J05 1-600; Q72J04 1-578, R136A); test: as above; conditions: both partners purified
T2 construct: TmrA, Thermus thermophilus, the chain of TmrAB with the canonical Walker B motif; TmrB, Thermus thermophilus, the chain of TmrAB with the non-canonical Walker B motif
T2 sequence 1: T1 sequence 1 with R136A
T2 sequence 2: T1 sequence 2 with A125D

B1: fluorescent transport substrate peptide RRY(C^Fluorescein)KSTEL (peptide)
peptide: RRYC(fluorescein)KSTEL
notes: fluorescein-labelled transport substrate peptide of TmrAB; also called fluorescently-labeled peptide substrate; peptide substrate; source: bought: Genscript
B1: binds [1]; binds [2].
